Test results published in article PMC6057269 (2018).

B1: GST-tagged ITSN1 SH3d (aa1076-1138), wild type [human] / FCHSD2 SH3-2 (aa568-629), recombinant [human] (parent complex)
chain 1: PEIAQVIASYTATGPEQLTLAPGQLILIRKKNPGGWWEGELQARGKKRQIGWFPANYVKLLSP
chain 2: SVCFVKALYDYEGQTDDELSFPEGAIIRILNKENQDDDGFWEGEFNGRIGVFPSVLVEELSA
B2: GST-tagged FCHSD2 SH3-2 (aa568-629), wild type [human] / ITSN1 SH3d (aa1076-1138), recombinant [human] (parent complex)
chain 1: B1 chain 2
chain 2: B1 chain 1

Variants of: B1
Assay: GST pull-down, Coomassie stained gel, band quantification; n = 3 experiments, mean ± SD; parent: 1; read off a plot

| ratio to parent | Variant |
| --- | --- |
| ~0.08 | chain 1 I3S |
| ~0.08 | chain 1 I3K |
| ~0.08 | chain 1 R44A |
| ~0.08 | chain 1 R44E |
| ~0.4 | chain 1 R48E |
| ~1.1 | chain 1 T11A |

Variants of: B2
Assay: as above

| ratio to parent | Variant |
| --- | --- |
| ~0.1 | chain 1 V55K, chain 1 L56K |
| ~1.1 | chain 1 D16A |
| ~0.9 | chain 1 D17K |
| ~0.45 | chain 1 Y9S |
| ~0.8 | chain 1 V55S |
| ~1.2 | chain 1 N46A |
| ~0.15 | chain 1 Y9S, chain 1 F40S |
| ~0.3 | chain 1 F40S |
